From patent publication US20020045191A1, “Inhibition of the SRC kinase family pathway as a method of treating HBV infection and hepatocellular carcinoma” (priority 2000, published 2002)

Legend:
WHV [1] = assay: WHV replication: Southern blot of core-associated viral DNA, Chang cells; type: cell-based, Woodchuck Hepatitis B Virus; conditions: co-expression with wtWHV, 3 days post-transfection
Procedure: FIG. 7. WHx requires activation of Src family kinase for WHV replication. Chang cells were co-transfected with 20 μg PCWHV, wtWHV, wtWHV and RasDN (dominant-negative) (10 μg), or wtWHV and Csk (10 μg). Three days post-transfection viral core-associated DNA was isolated, purified, and subjected to Southern blot analysis using a full-length ^32P-labeled WHV genomic probe.
Chang cells were transfected with infectious WHV clones, (2×10 cm plates) were washed twice with PBS and lysed in 500 μl lysis buffer/10 cm plate (20 mM Tris HCl pH 7.5, 1 mM EDTA, 100 mM NaCl, 0.5% NP-40) for 10-15 minutes. Lysates were centrifuged at 12,000× g for 30 minutes, MgCl2 was adjusted to 10 mM, DNAseI (Boehringer Mannheim) was added to 20 U/ml and the lysates were incubated at 37° C. for 2 hours. Following DNAse I treatment, the lysates were centrifuged for 5 min at 12,000× g, layered onto a 20% sucrose cushion (300 μl of 20% sucrose in 20 mM Tris HCl pH 8.0, 150 mM NaCl) and centrifuged for 178,000× g for 3 hours at 20° C. […]
Chang cells were co-transfected with plasmids encoding either wtWHV, PCWHV, wtWHV and RasDN, or wtWHV and Csk, intracellular core-associated viral DNA was isolated 3 days post-transfection, and purified viral DNA analyzed by Southern blot hybridization as described above (FIG. 7).

[2] = system: AP-1 dependent transcription; assay: AP-1 dependent luciferase reporter, HBx-transfected Chang cells; type: cell-based, human; conditions: co-expression with Csk
Procedure: (FIG. 3B) Cells were transfected as above but contained in addition 3 μg of plasmid pAP-1Luc, which encodes the luciferase reporter under the control of four AP-1 binding sites and a minimal TATA box promoter. Serum starved cells were harvested 18 h after transfection and the level of expression of the luciferase reporter assayed. Results are the average of three independent experiments.
(§1) Here it is shown that HBx activation of AP-1 DNA binding activity and AP-1 directed transcription, both involve an essential requirement for HBx activation of Src tyrosine kinases. Chang cells were transfected with plasmids expressing HBx or HBxo proteins, with or without cotransfection of Csk, serum starved and nuclear extracts prepared for electrophoretic mobility shift assay (EMSA) using equal amounts of nuclear extracts and a ^32P-labeled dsDNA probe containing one AP-1 binding site, as described (Benn et al., 1996 supra). Cotransfection of increasing amounts of the Csk expressing plasmid suppressed HBx induction of AP-1 DNA binding complexes in a titratable manner (FIG. 3A). Finally, cells were cotransfected with plasmids expressing HBx or HBxo and an AP-1 dependent luciferase reporter under the control of a minimal promoter, with and without a Csk expression plasmid (FIG. 3B).

AP-1 = AP-1 electrophoretic mobility shift assay (EMSA), HBx-transfected Chang cells; type: cell-based, human; conditions: cotransfection of increasing amounts of Csk plasmid
Procedure: (FIG. 3A) Cell extracts were prepared for AP-1 EMSA as described (Benn et al., 1996, supra) using a ^32P-labeled dsDNA oligonucleotide probe containing one AP-1 binding site. Reactions were carried out using 3 μg of nuclear extract, labeled oligonuleotide and 1 μg of poly(dI-dC) for 30 min at 23° C. Protein-DNA complexes were resolved by electrophoresis on 4% polyacrylamide gels and visualized by PhosphorImage 5analysis. As a positive control for AP-1 stimulation, cells were treated with 20 μM TPA for 30 min.
as §1, with “Finally, cells were cotransfected with plasmids expressing HBx or HBxo and an AP-1 dependent luciferase reporter under the control of a minimal promoter, with and without a Csk expression plasmid (FIG. 3B).” left out

N-Myc = N-Myc immunoblot of nuclear extracts, HBx-transfected Chang cells; type: cell-based, human; conditions: co-expression with HBx, serum-starved 20 hours
Procedure: Chang cells were transfected with plasmids expressing HBxo, HBx, Csk, SrcK^−, FynK^−, and the dominant-negative Ras (RasN17). The Ras N17 mutant was initially shown to preferentially bind GDP in vitro and to inhibit cellular proliferation when stably expressed in NIH 3T3 cells (Feig et al., 1988, Moll. Cell Biol. 8:3235-3243). Transfected cells were serum-starved for 20 hours, nuclear extracts prepared, equal amounts of protein resolved by SDS-PAGE and immunoblotted with anti-N-Myc antibodies. Expression of transfected HBx elevates the amount of N-Myc protein 3-4 fold. […] The inability of dominant-negative Ras or Fyn proteins to block Src activation is consistent with the report by Barone and Courtneidge (1995, supra). Co-expression of HBx with the dominant-negative Ras had no effect on induction of N-Myc by HBx, and neither did the expression of dominant-negative Fyn protein. Whether other Src family members (e.g. Yes or Lyn) are involved in N-Myc induction by HBx was not tested in these experiments.

CMV promoter = assay: CMV-βgal reporter control (β-galactosidase activity); type: cell-based; conditions: co-expression of Csk with CMV-βgal
Description: (§2) To assess whether HBx activation of a Src signaling cascade plays an essential role in transcriptional upregulation of the viral mRNAs, Chang cells were co-transfected with wtWHV and either RasDN or Csk plasmids, and the RNA visualized by Northern analysis (FIG. 7, lanes 2 and 3). […] To ensure that the decrease in synthesis of WHV RNA by Csk was not the unforseen consequence of Csk inhibition of the CMV promoter (which drives synthesis of the WHV pregenomic RNA), control experiments assessing the effect of Csk on a CMV-βgal reporter were carried out. […] However, the WHx-induced increase in mRNA abundance (˜3-5 fold) is much less then the HBx-induced increase in viral DNA synthesis (˜20-30 fold). […] The stimulation of Src signaling cascades by HBx must therefore promote WHV replication independent of the effect of WHx on viral transcription.

MAP kinase (ERK2) [3] = assay: MAP kinase (ERK2) MBP kinase assay during WHV replication in Chang cells; type: cell-based, human; conditions: co-expression with wtWHV
Procedure: FIG. 6. Woodchuck Hepatitis B Virus (WHV) HBx protein (WHx) activates a Src-Ras signaling cascade during WHV replication in cultured cells. […] Eighteen hours post-transfection, cells were serum-starved in 0.5% CS for 20 hours, MAP kinase (ERK-2) was immunoprecipitated from equal amounts of cell lysates and pellets were subjected to an in vitro MBP kinase assay.
To assay for MAP kinase activity, cells were lysed in freshly prepared lysis buffer (10 mM Tris HC1 pH 7.5, 1% Triton X-100, 0.5% NP-40, 1 mM EDTA, 1 mM EGTA, 1 mM Na3VO4, 50 mM NaF, 1 mM PMSF, 40 mM PPi, 10 μg/ml aprotinin, and 10 μg/ml leupeptin) and MAP kinase was immunoprecipitated using 1μg/ml anti-ERK2 antibodies from equal amounts of protein. After 4 washes with lysis buffer, and 2 with kinase buffer (20 mM Hepes pH 7.4, 10 mM MgCl2), the immunoprecipitates were incubated with kinase buffer including 0.5 mg/ml myelin basic protein (MBP, Sigma), 10 mM ATP and 5 μCi [γ-^32P]ATP for 30 minutes at 30° C. […]
To determine whether WHx also requires activation of Src family kinases for stimulation of Ras signaling during ongoing viral replication, Chang cells were co-transfected with plasmids synthesizing wtWHV and dominant-negative Ras (RasDN), dominant-negative Src (SrcK^−), or Csk proteins, and activation of MAP kinase was measured. […]

MAP kinase (ERK2) [4] = assay: MAP kinase (ERK2) immunoprecipitation / MBP kinase assay in HBx-transfected Chang cells; type: cell-based, human
Procedure: (FIG. 2B) ERK2 was immunoprecipitated from equal amounts of cell lysates analyzed by in vitro phosphorylation of myelin basic protein (MBP) using [γ-^32P] ATP. […] Cells were stimulated with 100 μg/ml of insulin (Intergen) for 10 min.
To assay for MAP kinase activity, cells were lysed in freshly prepared lysis buffer (10 mM Tris HC1 pH 7.5, 1% Triton X-100, 0.5% NP-40, 1 mM EDTA, 1 mM EGTA, 1 mM Na3VO4, 50 mM NaF, 1 mM PMSF, 40 mM PPi, 10 μg/ml aprotinin, and 10 μg/ml leupeptin) and MAP kinase was immunoprecipitated using 1μg/ml anti-ERK2 antibodies from equal amounts of protein. After 4 washes with lysis buffer, and 2 with kinase buffer (20 mM Hepes pH 7.4, 10 mM MgCl2), the immunoprecipitates were incubated with kinase buffer including 0.5 mg/ml myelin basic protein (MBP, Sigma), 10 mM ATP and 5 μCi [γ-^32P]ATP for 30 minutes at 30° C. The reactions were stopped by the addition of 2× sample loading buffer (Sambrook et al. 1989, supra), resolved by 15% SDS-PAGE and visualized by autoradiography. Assays for activation of JNK MAP kinases were carried out exactly as described above, except that the immunoprecipitated JNK was incubated with 5 μg purified GST-c-Jun (Benn et al., 1996, supra) and 10 μCi [γ-^32P]ATP, and resolved by 10% SDS-PAGE.
To test whether HBx activation of the Src family of kinases is required for stimulation of Ras signaling by HBx, Chang cells were transfected at low density with plasmids expressing HBxo, HBx or HBx and Csk, serum-starved for 20 hours, 2% serum restored for 2 hours to permit protein synthesis, and activation of immunoprecipitated MAP kinase at the end of the Ras-MAP kinase cascade assayed by incubation with myelin basic protein (MBP) and [γ-^32P]ATP (FIG. 2). Expression of HBx induces a strong activation in the ability of MAP kinase to phosphorylate MBP that is abolished upon co-transfection of HBx with Csk. […]

WHV [5] = assay: WHV RNA: Northern blot analysis, Chang cells; type: cell-based, Woodchuck Hepatitis B Virus; conditions: co-expression with wtWHV
Procedure: Chang cells were washed twice with PBS and total RNA prepared according to the manufacturer's instructions (RNeasy mini kit; Qiagen). 15 μg total RNA per sample were resolved through a 1.2% formaldehyde-agarose gel (Sambrook et al., 1989, supra), transferred to Duralon UV membrane, and pre-hybridized in Quick-Hyb solution (Stratagene) at 65° C. Hybridization to 32P-labeled full length WHV probe was carried out in the same solution at 65° C., washed as described above, and autoradiographed for 1 day.
as §2

B1: Csk: protein tyrosine kinase C-terminal Src kinase, physiologic inhibitor of Src, expressed from plasmid (protein, UniProt P41240 2-450, looked up)
Tyrosine-protein kinase CSK: SAIQAAWPSGTECIAKYNFHGTAEQDLPFCKGDVLTIVAVTKDPNWYKAKNKVGREGIIPANYVQKREGVKAGTKLSLMPWFHGKITREQAERLLYPPETGLFLVRESTNYPGDYTLCVSCDGKVEHYRIMYHASKLSIDEEVYFENLMQLVEHYTSDADGLCTRLIKPKVMEGTVAAQDEFYRSGWALNMKELKLLQTIGKGEFGDVMLGDYRGNKVAVKCIKNDATAQAFLAEASVMTQLRHSNLVQLLGVIVEEKGGLYIVTEYMAKGSLVDYLRSRGRSVLGGDCLLKFSLDVCEAMEYLEGNNFVHRDLAARNVLVSEDNVAKVSDFGLTKEASSTQDTGKLPVKWTAPEALREKKFSTKSDVWSFGILLWEIYSFGRVPYPRIPLKDVVPRVEKGYKMDAPDGCPPAVYEVMKNCWHLDAAMRPSFLQLREQLEHIKTHELHL
WHV [1]
  WHV replication (core-associated viral DNA): completely abolished
[2]
  HBx induced activation of AP-1 dependent transcription: fully blocked
AP-1
  HBx induction of AP-1 DNA binding complexes: suppressed
N-Myc
  increase in N-Myc protein by HBx: impaired
CMV promoter
  expression of βgal protein from CMV-βgal (β-galactosidase activity): did not significantly alter
MAP kinase (ERK2) [3]
  downstream activation of MAP kinase by wtWHV: efficiently inhibited
MAP kinase (ERK2) [4]; co-expression with HBx, serum-starved in 0.5% CS for 24 hours
  HBx activation of ERK2: impaired
MAP kinase (ERK2) [4]; co-transfection of HBx with Csk, serum-starved 20 hours, 2% serum 2 hours
  HBx activation of MAP kinase (phosphorylation of MBP): abolished
MAP kinase (ERK2) [4]; overexpression of Csk
  activation of MAP kinase by insulin: only slightly impaired
WHV [5]
  reduction of WHV RNA level: 3-5 fold
